Laboratory results as given in patent publication US20240043515A1 (Chugai, published 2024).
Residue numbers refer to the chain shown, from its start. Names may count otherwise. Values belong to the binder of their own block, whether it stands above or below them.

Columns and labels:
[1] = molecular target: T1, human FcγRIIa R extracellular domain (human, UniProt P12318 34-217); test: SPR; KD for hFcγRIIb divided by KD for this FcγR
T1 construct: extracellular domain; also called hFcγR IIa R; FcγRIIa allotype R131
T1 sequence (looked up): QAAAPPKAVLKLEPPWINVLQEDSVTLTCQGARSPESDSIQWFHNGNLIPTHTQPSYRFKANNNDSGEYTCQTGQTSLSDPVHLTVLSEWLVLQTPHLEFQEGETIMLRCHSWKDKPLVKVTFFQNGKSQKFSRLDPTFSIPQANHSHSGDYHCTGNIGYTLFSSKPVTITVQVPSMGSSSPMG

[2] = molecular target: T2, human FcγRIIIa F extracellular domain (human, UniProt P08637 17-208); test: SPR; KD for hFcγRIIb divided by KD for this FcγR
T2 construct: extracellular domain; also called hFcγR IIIa F; FcγRIIIa allotype F158
T2 sequence (P08637 17-208): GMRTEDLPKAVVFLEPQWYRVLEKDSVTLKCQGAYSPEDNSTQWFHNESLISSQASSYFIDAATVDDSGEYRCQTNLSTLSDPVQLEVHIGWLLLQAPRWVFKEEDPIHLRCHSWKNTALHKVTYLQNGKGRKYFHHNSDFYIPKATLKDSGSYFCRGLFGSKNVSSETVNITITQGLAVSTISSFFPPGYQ

[3] = molecular target: T3, human FcγRIIa H extracellular domain (human, UniProt P12318 34-217); test: SPR; KD for hFcγRIIb divided by KD for this FcγR
T3 construct: extracellular domain; also called hFcγR IIa H; FcγRIIa allotype H131
T3 sequence (looked up): T1 sequence (looked up) with R134H

[4] = molecular target: T4, human FcγRIIIa V extracellular domain (human, UniProt P08637 17-208); test: SPR; KD for hFcγRIIb divided by KD for this FcγR
T4 construct: extracellular domain; also called hFcγR IIIa V; FcγRIIIa allotype V158
T4 sequence (P08637 17-208 F176V): as the sequence (P08637 17-208) above, with F160V counted along it

[5] = molecular target: T1, human FcγRIIa R extracellular domain; test: SPR; KD of G1d divided by KD of this antibody
[6] = molecular target: T2, human FcγRIIIa F extracellular domain; test: SPR; KD of G1d divided by KD of this antibody
[7] = molecular target: T3, human FcγRIIa H extracellular domain; test: SPR; KD of G1d divided by KD of this antibody
[8] = molecular target: T5, human FcγRIa extracellular domain (human, UniProt P12314 16-292); test: SPR; KD of G1d divided by KD of this antibody
T5 construct: extracellular domain; also called hFcγR Ia
T5 sequence (P12314 16-292): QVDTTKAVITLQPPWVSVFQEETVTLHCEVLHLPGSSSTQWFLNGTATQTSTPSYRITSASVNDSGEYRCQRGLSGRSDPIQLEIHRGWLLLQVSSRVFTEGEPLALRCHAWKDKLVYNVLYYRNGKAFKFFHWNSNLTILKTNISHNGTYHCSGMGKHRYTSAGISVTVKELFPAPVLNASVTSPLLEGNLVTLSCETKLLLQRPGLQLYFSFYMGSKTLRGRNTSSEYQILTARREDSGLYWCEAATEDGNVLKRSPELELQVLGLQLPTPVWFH

[9] = molecular target: T4, human FcγRIIIa V extracellular domain; test: SPR; KD of G1d divided by KD of this antibody
[10] = molecular target: T6, human FcγRIIb extracellular domain (human, UniProt P31994 43-217); test: SPR; KD of G1d divided by KD of this antibody
T6 construct: extracellular domain; also called hFcγR IIb
T6 sequence (looked up): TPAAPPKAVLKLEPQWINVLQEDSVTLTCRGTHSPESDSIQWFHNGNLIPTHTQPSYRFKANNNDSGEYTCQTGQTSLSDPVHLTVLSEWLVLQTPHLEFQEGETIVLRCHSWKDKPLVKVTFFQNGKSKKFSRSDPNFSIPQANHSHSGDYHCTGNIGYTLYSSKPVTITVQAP

[11] = molecular target: T4, human FcγRIIIa V extracellular domain; test: SPR (Biacore 8K+), antibody captured, FcγR as analyte, 25 C, 1:1 Langmuir model
Procedure: (§1) The extracellular domains of FcγRs were produced by the method described in WO2014104165. The interaction between the produced antibodies and human FcγRs was analyzed using Biacore 8K+ by the method below. For the running buffer, 50 mM Na-Phosphate, 150 mM NaCl, and 0.05% Tween20 (pH 7.4) was used, and measurement was performed at 25° C. The sensor chip used was a Series S SA chip (GE Healthcare) onto which CaptureSelect Human Fab-kappa Kinetics Biotin Conjugate (Thermo Fisher Scientific) was immobilized. An antibody of interest was captured onto this chip, and each FcγR diluted with the running buffer was allowed to interact with it. The chip was regenerated using 10 mM Glycine-HCl (pH 1.5), and repeatedly used to capture antibodies and perform measurement. The dissociation constants KD (mol/L) of each antibody for FcγRs were calculated using Biacore Insight Evaluation Software, with a steady state affinity model for the dissociation constant for FcγRIIb and a 1:1 Langmuir binding model for the dissociation constants for the other FcγRs (Table 2).

[12] = molecular target: hFcγRIIIaV on Jurkat effector cells (human, UniProt P08637 17-254); test: cell-based or functional assay
Sequence of hFcγRIIIaV on Jurkat effector cells (P08637 17-254, form in doubt): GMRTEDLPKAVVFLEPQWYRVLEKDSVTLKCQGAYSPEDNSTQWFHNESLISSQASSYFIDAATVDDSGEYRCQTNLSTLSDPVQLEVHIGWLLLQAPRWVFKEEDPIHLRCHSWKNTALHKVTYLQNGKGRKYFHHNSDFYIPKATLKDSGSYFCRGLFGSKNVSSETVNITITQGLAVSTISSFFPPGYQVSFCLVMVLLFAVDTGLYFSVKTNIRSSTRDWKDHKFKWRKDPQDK

[13] = molecular target: T7, hFcγRIIaH on Jurkat effector cells (human, UniProt P12318 34-317); test: cell-based or functional assay
T7 sequence (looked up): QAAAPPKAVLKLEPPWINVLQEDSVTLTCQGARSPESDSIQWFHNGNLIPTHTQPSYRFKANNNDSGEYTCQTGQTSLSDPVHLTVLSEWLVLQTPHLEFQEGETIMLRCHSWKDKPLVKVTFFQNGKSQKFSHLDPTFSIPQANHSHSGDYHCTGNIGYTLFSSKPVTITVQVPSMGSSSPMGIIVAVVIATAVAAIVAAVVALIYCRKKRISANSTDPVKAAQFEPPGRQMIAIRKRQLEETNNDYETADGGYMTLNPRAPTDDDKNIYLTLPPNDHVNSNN

[14] = molecular target: T6, human FcγRIIb extracellular domain; test: SPR (Biacore 8K+), antibody captured, FcγR as analyte, 25 C, steady state affinity model
Procedure: as §1

A/I ratio (KD for FcγRIIb divided by KD for each FcγR) [1]: 28.1 ratio | A/I ratio (KD for FcγRIIb divided by KD for each FcγR) [2]: 2350 ratio | A/I ratio (KD for FcγRIIb divided by KD for each FcγR) [3]: 47.2 ratio | A/I ratio (KD for FcγRIIb divided by KD for each FcγR) [4]: 6850 ratio | Relative value to KD between G1d and hFcgRs [5]: 13.2 times | Relative value to KD between G1d and hFcgRs [6]: 1970 times | Relative value to KD between G1d and hFcgRs [7]: 15 times | Relative value to KD between G1d and hFcgRs [8]: 3.2 times | Relative value to KD between G1d and hFcgRs [9]: 695 times | Relative value to KD between G1d and hFcgRs [10]: 2.8 times | Kd [11]: 0.516 nM | EC50 of reporter gene induction (ADCC Reporter Bioassay, Hepa1-6/hEREG target cells) [12]: 1.07 ng/mL | EC50 of reporter gene induction (ADCP Reporter Bioassay, Hepa1-6/hEREG target cells) [13]: 0.0171 µg/mL
B1: EGL-ART8 (H240-Kn461/L73-k0//H240-H1443/L73-k0) (antibody, human IgG1, kappa)
heavy 1: QDQLVQSGAEVKKPGASVKVSCKASGFNIKDTYIQWVRQAPGQGLEWMGRIDPLRKQTKYREKFEGRVTITADTSTNTAYMELSSLRSEDTAVYYCVRSGREFDYWGQGTLVTVSSASTKGPSVFPLAPSSKSTSGGTAALGCLVKDYFPEPVTVSWNSGALTSGVHTFPAVLQSSGLYSLSSVVTVPSSSLGTQTYICNVNHKPSNTKVDKKVEPKSCDKTHTCPPCPAPEFQWGPMVFLFPPKPKDVLMISRTPEVTCVVVDVSDEEPEVKFNWYVDGVEVHNAKTKPREEQYNATYRVVSVLPVLHQDWLNGKEYKCKVSNDALPAPEEKTISKAKGQPREPQVCTLPPSRDELTKNQVSLWCLVKGFYPSDIAVEWESNGQPENNYKTTPPVLDSDGSFFLYSKLTVDKSRWQQGNVFSCSVMHEALHNHYTQKSLSLSP
heavy 2: QDQLVQSGAEVKKPGASVKVSCKASGFNIKDTYIQWVRQAPGQGLEWMGRIDPLRKQTKYREKFEGRVTITADTSTNTAYMELSSLRSEDTAVYYCVRSGREFDYWGQGTLVTVSSASTKGPSVFPLAPSSKSTSGGTAALGCLVKDYFPEPVTVSWNSGALTSGVHTFPAVLQSSGLYSLSSVVTVPSSSLGTQTYICNVNHKPSNTKVDKKVEPKSCDKTHTCPPCPAPELLAGPSVFLFPPKPKDVLMISRTPEVTCVVVDVSHEEPEVKFNWYVDGVEVHNAKTKPREEQYNATYRVVSVLPVLHQDWLNGKEYKCKVSNDALPAPEEETISKAKGQPREPQVYTLPPSRCELTKNQVSLSCAVKGFYPSDIAVEWESNGQPENNYKTTPPVLDSDGSFFLVSKLTVDKSRWQQGNVFSCSVMHEALHNHYTQKSLSLSP
light: DIQMTQSPSSLSASVGDRVTITCRASQDIHKYIAWYQQKPGQAPRLLIQYTSTLQPGVPSRFSGSGSGTDYTFTISSLQPEDIATYYCLQYEQLRTFGGGTKVEIKRTVAAPSVFIFPPSDEQLKSGTASVVCLLNNFYPREAKVQWKVDNALQSGNSQESVTEQDSKDSTYSLSSTLTLSKADYEKHKVYACEVTHQGLSSPVTKSFNRGEC
notes: Kn461: L234F/L235Q/G236W/S239M/T250V/H268D/D270E/S298A/T307P/K326D/I332E + Y349C/T366W; H1443: G236A/T250V/D270E/S298A/T307P/K326D/I332E/K334E + D356C/T366S/L368A/Y407V

Relative value to KD between G1d and hFcgRs [7]: 1.1 times | Relative value to KD between G1d and hFcgRs [10]: 1.8 times | Kd [11]: 19 nM | Kd [14]: 5.65 µM
B2: EGL-afucosyl (H240-G1d/L73-k_glycomab) (antibody)
heavy: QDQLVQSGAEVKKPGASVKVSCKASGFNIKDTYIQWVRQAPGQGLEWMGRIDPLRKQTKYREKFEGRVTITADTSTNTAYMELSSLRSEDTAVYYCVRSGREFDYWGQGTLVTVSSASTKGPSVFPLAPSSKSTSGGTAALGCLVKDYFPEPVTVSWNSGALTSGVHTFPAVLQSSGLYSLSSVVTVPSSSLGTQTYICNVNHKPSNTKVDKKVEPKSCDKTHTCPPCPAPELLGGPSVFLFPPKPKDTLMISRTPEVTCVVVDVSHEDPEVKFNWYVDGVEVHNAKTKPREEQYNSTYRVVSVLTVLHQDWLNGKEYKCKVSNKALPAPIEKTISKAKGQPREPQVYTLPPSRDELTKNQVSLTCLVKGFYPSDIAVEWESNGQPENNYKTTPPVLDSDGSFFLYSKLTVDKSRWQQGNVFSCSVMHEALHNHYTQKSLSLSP
light: B1 light
modifications: afucosylated (fucose-deficient sugar chain) ; Afucosylated (fucose-deficient) N-glycan at Asn297 (EU) of each heavy chain; the letters cannot carry this.
notes: Same heavy chain as EGL-G1d, produced as a fucose-deficient antibody; also called afucosylated antibody

The remaining lines, values behind:

B3: EGL-ART12 (H240-Kn498/L73-k0//H240-H1518/L73-k0) (antibody, human IgG1, kappa)
heavy 1: B1 heavy 1 with D325K, A329M, E331I
heavy 2: B1 heavy 2 with A235G, A329M, E331I
light: B1 light
notes: Kn498: L234F/L235Q/G236W/S239M/T250V/H268D/D270E/S298A/T307P/A330M + Y349C/T366W; H1518: T250V/D270E/S298A/T307P/K326D/A330M/K334E + D356C/T366S/L368A/Y407V
A/I ratio (KD for FcγRIIb divided by KD for each FcγR) [1]: 12.8 ratio | A/I ratio (KD for FcγRIIb divided by KD for each FcγR) [2]: 4310 ratio | A/I ratio (KD for FcγRIIb divided by KD for each FcγR) [3]: 60.3 ratio | A/I ratio (KD for FcγRIIb divided by KD for each FcγR) [4]: 9720 ratio | Relative value to KD between G1d and hFcgRs [5]: 1 times | Relative value to KD between G1d and hFcgRs [6]: 578 times | Relative value to KD between G1d and hFcgRs [7]: 3.1 times | Relative value to KD between G1d and hFcgRs [8]: 3.4 times | Relative value to KD between G1d and hFcgRs [9]: 158 times | Relative value to KD between G1d and hFcgRs [10]: 0.5 times | EC50 of reporter gene induction (ADCC Reporter Bioassay, Hepa1-6/hEREG target cells) [12]: 0.304 ng/mL | EC50 of reporter gene induction (ADCP Reporter Bioassay, Hepa1-6/hEREG target cells) [13]: 0.085 µg/mL

B4: EGL-GASDIE (H240-Kn037/L73-k0//H240-H1036/L73-k0) (antibody, human IgG1, kappa)
heavy 1: B1 heavy 1 with F233L, Q234L, W235A, M238D, V249T, D267H, E269D, A297S, P306T, D325K
heavy 2: B1 heavy 2 with S238D, V249T, E269D, A297S, P306T, D325K, E333K
light: B1 light
notes: G236A/S239D/I332E in both heavy chains; Kn037 with Y349C/T366W, H1036 with D356C/T366S/L368A/Y407V
A/I ratio (KD for FcγRIIb divided by KD for each FcγR) [1]: 18.6 ratio | A/I ratio (KD for FcγRIIb divided by KD for each FcγR) [2]: 18.9 ratio | A/I ratio (KD for FcγRIIb divided by KD for each FcγR) [3]: 18.2 ratio | A/I ratio (KD for FcγRIIb divided by KD for each FcγR) [4]: 52.6 ratio | Relative value to KD between G1d and hFcgRs [5]: 24.7 times | Relative value to KD between G1d and hFcgRs [6]: 44.7 times | Relative value to KD between G1d and hFcgRs [7]: 16.4 times | Relative value to KD between G1d and hFcgRs [8]: 6.2 times | Relative value to KD between G1d and hFcgRs [9]: 15.1 times | Relative value to KD between G1d and hFcgRs [10]: 8 times | EC50 of reporter gene induction (ADCC Reporter Bioassay, Hepa1-6/hEREG target cells) [12]: 3.7 ng/mL | EC50 of reporter gene induction (ADCP Reporter Bioassay, Hepa1-6/hEREG target cells) [13]: 0.0149 µg/mL
